Changes are numbered by the printed parent chain.
Experiments:
Assay in all cases: cleavage_in_vitro
[1] = target: T1, BamHI-HF E163A/E167T (Bacillus amyloliquefaciens) (UniProt P23940); details: NEB4, 37 C, Mg2+
T1 sequence: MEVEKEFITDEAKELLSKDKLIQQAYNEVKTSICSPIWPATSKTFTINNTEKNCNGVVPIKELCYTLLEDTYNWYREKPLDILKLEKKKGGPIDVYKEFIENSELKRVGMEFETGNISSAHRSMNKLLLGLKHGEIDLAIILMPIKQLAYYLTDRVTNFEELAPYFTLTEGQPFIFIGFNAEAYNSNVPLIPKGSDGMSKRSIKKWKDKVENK

[2] = tested on: T2, BsmBI (Bacillus stearothermophilus); details: NEB4, 55 C, Mg2+
T2 sequence: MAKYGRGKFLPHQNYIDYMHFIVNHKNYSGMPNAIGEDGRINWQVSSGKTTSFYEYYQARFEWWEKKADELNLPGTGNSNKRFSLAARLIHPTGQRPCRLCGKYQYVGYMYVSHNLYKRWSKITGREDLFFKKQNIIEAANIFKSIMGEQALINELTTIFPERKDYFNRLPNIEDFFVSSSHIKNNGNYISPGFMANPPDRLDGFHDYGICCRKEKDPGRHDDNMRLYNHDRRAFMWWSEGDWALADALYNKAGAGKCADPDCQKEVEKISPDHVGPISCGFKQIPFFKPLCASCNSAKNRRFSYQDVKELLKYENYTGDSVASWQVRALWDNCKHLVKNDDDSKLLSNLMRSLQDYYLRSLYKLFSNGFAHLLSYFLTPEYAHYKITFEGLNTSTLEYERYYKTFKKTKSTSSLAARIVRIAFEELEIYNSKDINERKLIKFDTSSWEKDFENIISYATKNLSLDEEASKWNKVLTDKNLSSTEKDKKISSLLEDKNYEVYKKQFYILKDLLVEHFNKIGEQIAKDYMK

[3] = tested on: T3, BspQI (Bacillus sphaericus); details: NEB4, 50 C, Mg2+
T3 sequence: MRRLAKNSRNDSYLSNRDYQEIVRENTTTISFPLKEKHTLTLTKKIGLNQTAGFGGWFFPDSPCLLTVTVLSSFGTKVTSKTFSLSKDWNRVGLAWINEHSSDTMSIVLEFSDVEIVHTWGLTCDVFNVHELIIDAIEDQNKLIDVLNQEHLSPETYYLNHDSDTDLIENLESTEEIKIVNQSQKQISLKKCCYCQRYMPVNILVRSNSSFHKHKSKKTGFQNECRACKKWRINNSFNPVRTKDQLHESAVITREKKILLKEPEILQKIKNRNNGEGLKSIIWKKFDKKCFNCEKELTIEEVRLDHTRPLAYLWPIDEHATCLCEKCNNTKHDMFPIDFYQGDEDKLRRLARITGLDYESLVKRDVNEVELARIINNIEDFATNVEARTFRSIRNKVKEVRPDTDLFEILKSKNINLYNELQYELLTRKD

[4] = tested on: BstXI; details: NEB4, 55 C, Mg2+
[5] = target: EcoRI(K62A) K62A (Escherichia coli RY13) (UniProt P00642); details: NEB4, 37 C, Mg2+
[6] = tested on: T4, NcoI (Nocardia corallina); details: NEB4, 37 C, Mg2+
T4 sequence: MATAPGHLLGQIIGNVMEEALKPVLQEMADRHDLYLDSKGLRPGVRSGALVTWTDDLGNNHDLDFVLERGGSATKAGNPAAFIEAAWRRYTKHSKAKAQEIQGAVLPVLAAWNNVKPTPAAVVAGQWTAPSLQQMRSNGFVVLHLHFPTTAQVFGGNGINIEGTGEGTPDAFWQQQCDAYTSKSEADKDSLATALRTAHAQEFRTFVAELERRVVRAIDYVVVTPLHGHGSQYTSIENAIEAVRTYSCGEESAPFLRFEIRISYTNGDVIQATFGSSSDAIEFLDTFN

[7] = target: T5, PstI (Providencia stuartii 164) (UniProt P00640); details: NEB4, 37 C, Mg2+
T5 sequence: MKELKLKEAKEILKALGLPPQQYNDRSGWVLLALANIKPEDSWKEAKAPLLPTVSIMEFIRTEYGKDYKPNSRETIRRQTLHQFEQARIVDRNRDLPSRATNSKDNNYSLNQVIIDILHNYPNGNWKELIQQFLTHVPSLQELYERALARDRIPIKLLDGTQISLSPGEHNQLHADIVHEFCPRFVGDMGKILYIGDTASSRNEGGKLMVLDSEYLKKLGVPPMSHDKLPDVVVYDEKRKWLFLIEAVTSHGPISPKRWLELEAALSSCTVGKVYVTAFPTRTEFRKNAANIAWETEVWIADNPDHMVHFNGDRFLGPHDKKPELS

[8] = target: T6, PstI-HF D91A (Providencia stuartii 164) (UniProt P00640); details: NEB4, 37 C, Mg2+
T6 sequence: T5 sequence with D91A

[9] = tested on: T7, SbfI (Streptomyces species Bf-61?); details: NEB4, 37 C, Mg2+
T7 sequence: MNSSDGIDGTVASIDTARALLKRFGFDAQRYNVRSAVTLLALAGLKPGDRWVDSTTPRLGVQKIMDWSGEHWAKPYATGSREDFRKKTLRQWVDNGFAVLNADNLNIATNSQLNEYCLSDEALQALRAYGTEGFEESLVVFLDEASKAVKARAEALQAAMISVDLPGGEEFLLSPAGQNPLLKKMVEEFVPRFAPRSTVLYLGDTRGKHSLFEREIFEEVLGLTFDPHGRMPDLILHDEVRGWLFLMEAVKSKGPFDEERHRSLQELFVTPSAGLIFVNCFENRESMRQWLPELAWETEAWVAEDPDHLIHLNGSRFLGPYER

lambda DNA
activity (fidelity index) [1]: > 4000 | activity (fidelity index) [2]: 4 | activity (fidelity index) [3]: 4 | activity (fidelity index) [4]: 4 | activity (fidelity index) [5]: 32000 | activity (fidelity index) [6]: 32 | activity (fidelity index) [7]: 8 | activity (fidelity index) [8]: 4000 | activity (fidelity index) [9]: 8

— US20130115677
